{"source": "patent US9850293B2", "about": "“Targeting trastuzumab-resistant HER2+ breast cancer with a HER3-targeting nanoparticle” (priority 2014, dated 2017)", "key": {"[1]": {"experiment": "HerDox stability in serum-containing media", "assay_type": "in vitro ADME", "settings": "10% fetal bovine serum media, 37° C.", "experimental": "FIG. 6 (B) mimics extended exposure of HerDox to cells in culture medium. HerDox immobilized on Ni-NTA beads were incubated with bovine serum in DMEM for the indicated times at 37° C. before each sample was pelleted. […] Relative Dox release or retention in serum is expressed as normalized to control (corresponding sample lacking serum). N=3 per time point.\nThe inventors tested the stability of HerDox over 12 days under different storage temperatures: 40° C., room temperature, or 37° C. […] The inventors also examined HerDox stability in serum-containing media at 37° C. […] Dox retention in the conjugate was also assessed by eluting the conjugate from the beads at each time point."}, "HER2+ tumors": {"test_system": "HER2+ tumors", "experiment": "HerDox and Dox biodistribution (Dox fluorescence imaging)", "from_the_text": "FIG. 11 (A) depicts imaging of live mice after IV delivery of HerDox. Tumors are indicated by arrows."}, "[2]": {"experiment": "Off-target toxicity in treated mice (weight, heart, liver)", "experimental": "Relative cell survival (as % of untreated cells) on day 3 of treatment. (+Her), pre-incubation of MDA-MB-435 cells with receptor-blocking ligand (recombinant heregulin) before receiving HerDox. N=3. […] Tissues were harvested from independently injected mice euthanized at indicated time points after injection and fluorescence intensity/tissue acquired using a multimode imager. […] Bar, about 4 μm. […] Day 0=3 days before tail vein injections (mice received daily injections for 7 days). […] Day 0=3 days before tail vein injections (mice received daily injections for 7 days). […] Micrographs (20× magnification) in (E) also show representative H&E stained specimens of myocardia and immunofluorescent specimens of livers from treated mice. Green fluorescence in nuclei indicates apoptosis (positive TUNEL stain)."}, "MDA-MB-435 cells": {"test_system": "MDA-MB-435 cells", "experiment": "Intracellular translocation of HerDox and Dox (microscopy)", "assay_type": "cell-based, human", "experimental": "Live (unfixed) cells were imaged by brightfield and fluorescence microscopy.\nLive (unfixed) cells were imaged by DIC and confocal fluorescence microscopy.\nFIG. 15 illustrates HerDox trafficking in breast cancer cells. Cells incubated with HerDox at 37° C. were fixed at the indicated time points and processed for immunofluorescence using an antibody against HerPBK10. Images were captured using confocal microscopy under fluorescence and brightfield. n, nucleus; Bar, ˜8 microns."}, "U251 human glioma cells": {"test_system": "U251 human glioma cells", "experiment": "Toxicity to glioma cells (cell count)", "assay_type": "cell-based", "settings": "four days", "experimental": "Significant differences were determined by 2-tailed tests.\nCells were trypsinized and counted on the last day."}, "BT474 parental cells": {"test_system": "BT474 parental cells", "experiment": "Tumor cell killing in culture", "assay_type": "cell-based, human", "experimental": "(§1) FIG. 21 depicts graph that show the results of the administration of HerDox on various cells. […] N=3. *=p<0.05 compared to parental. […] N=3.\n(§2) N=3. *, p<0.05 compared to parental. […] N=3. […] Parental and resistant cell lines were treated with HerDox−/+HER3 blocking peptide (ErbB3 human; Prospec), and tested for cell survival 48 hours later. […] Treatments were compared to mock (saline)-treatment. […] N=3. *, p<0.05 compared to parental. […] N=3.\n(§3) Parental cell lines were pre-treated with 0.5 mg/mL Tz for 24 hours before testing these cells for surface HER3 levels. […] Parental cell lines were pre-treated with 0.5 mg/mL Tz for 24 hours before testing these cells for HerPBK10 binding. […] SKBR3 Parental cells were treated with Tz at indicated concentrations (see upper X-axes) 4 and 24 hours before HerDox treatment and assayed for survival at 48-72 h after treatment. N=3. […] SK-474 Parental cells were treated with Tz at indicated concentrations (see upper X-axes) 4 and 24 hours before HerDox treatment and assayed for survival at 48-72 h after treatment. N=3. […] MDA-MB-435 non-resistant cells were treated with Tz at indicated concentrations (see upper X-axes) 4 and 24 hours before HerDox treatment and assayed for survival at 48-72 h after treatment. […] N=3. […] Tz-resistant cells were treated with Tz at indicated concentrations (see upper X-axes) 4 and 24 hours before HerDox treatment and assayed for survival at 48-72 h after treatment. N=3.\nN=3. *, p<0.05 compared to parental. […] N=3. […] N=3. […] Tumor volumes were measured by calipers. […] Tumor volumes were measured by calipers. […]"}, "SKBR3 parental cells": {"test_system": "SKBR3 parental cells", "experiment": "Tumor cell killing in culture", "assay_type": "cell-based, human", "experimental": "as §1, §2, §3\nEach therapeutic was administered at concentration ranges previously established for eliciting therapeutic efficacy.\nPrevious studies have shown that HER3 is transcriptionally and translationally elevated as soon as 4 hours after HER2 inhibition, either by lapatinib or gene silencing. […]"}, "[3]": {"settings": "single tail vein injection, live imaging"}, "[4]": {"settings": "tissues harvested ~3 h after injection"}}, "note": "Entries after “also recorded” stand apart in the source; their conditions may differ."}
{"molecule": "HerDox: non-covalent complex of HerPBK10, double-stranded oligonucleotide and intercalated Dox (Unit A+Unit B+Unit C) (conjugate, left off: small tags and cut ends) SHLVKCAEKEKTFCVNGGECFMVKDLSNPSRYLCKCQPGFTGARCTENVPMKVQNQEKAEELYQKMRRAAMYEEGPPPSYESVVSAAPVAAALGSPFDAPLDPPFVPPRYLRPTGGRNSIRYSELAPLFDTTRVYLVDNKSTDVASLNYQNDHSNFLTTVIQNNDYSPGEASTQTINLDDRSHWGGDLKTILHTNMPNVNEFMFTNKFKARVMVSRLPTKDNQVELKYEWVEFTLPEGNYSETMTIDLMNNAIVEHYLKVGRQNGVLESDIGVKFDTRNFRLGFDPVTGLVMPGVYTNEAFHPDIILLPGCGVDFTHSRLSNLLGIRKRQPFQEGFRITYDDLEGGNIPALLDVDAYQASLKDDTEQGGGGAGGSNSSGSGAEENSNAAAAAMQPVEDMNDHAIRGDTFATRAEEKRAEAEAAAEAAAPAAQPEVEKPQKKPVIKPLTEDSKKRSYNLISNDSTFTQYRSWYLAYNYGDPQTGIRSWTLLCTPDVTCGSEQVYWSLPDMMQDPVTFRSTRQISNFPVVGAELLPVHSKSFYNDQAVYSQLIRQFTSLTHVFNRFPENQILARPPAPTITTVSENVPALTDHGTLPLRNSIGGVQRVTITDARRRTCPYVYKALGIVSPRVLSSRTFKKKKKKKKKK", "values": [{"measurement": "Dox release from conjugate in serum", "setting": "[1]", "value": "no significant release of Dox"}, {"measurement": "Dox retention by conjugate in serum", "setting": "[1]; each time point", "value": "completely retained"}, {"measurement": "time fluorescence remained detectable in the tumors", "setting": "HER2+ tumors; [3]", "value": "up to 100 min"}, {"measurement": "time of fluorescence accumulation at the tumors", "setting": "HER2+ tumors; [3]", "value": "≤ 20", "unit": "min"}, {"measurement": "fluorescence in kidneys", "setting": "HER2+ tumors; [4]", "value": "barely detectable"}, {"measurement": "fluorescence in liver", "setting": "HER2+ tumors; [4]", "value": "substantially lower levels of fluorescence"}, {"measurement": "fluorescence in other tissues (heart, spleen, lungs, skeletal muscle)", "setting": "HER2+ tumors; [4]", "value": "did not exhibit any fluorescence"}, {"measurement": "fluorescence in tumors", "setting": "HER2+ tumors; [4]", "value": "intense fluorescence in the tumors"}, {"measurement": "cardiac function (echocardiograms)", "setting": "[2]; 25 days following injections", "value": "no effect on these measurements"}, {"measurement": "liver and heart toxicity", "setting": "[2]; systemic delivery in vivo", "value": "avoiding liver and heart toxicity"}, {"measurement": "intracellular location of Dox fluorescence", "setting": "MDA-MB-435 cells; 0 min of uptake, 0.5 μM", "value": "mostly at the cell periphery"}, {"measurement": "localization of HerPBK10 and Dox (immunofluorescence)", "setting": "MDA-MB-435 cells; 30 and 60 min", "value": "increasing levels of Dox accumulate in the nucleus while the majority of HerPBK10 remains in the cytoplasm"}, {"measurement": "colocalization of HerPBK10 and Dox (immunofluorescence)", "setting": "MDA-MB-435 cells; 15 min of uptake", "value": "HerPBK10 mostly colocalizes with Dox"}, {"measurement": "intracellular location of Dox fluorescence", "setting": "MDA-MB-435 cells; 60 min", "value": "accumulated in the nucleus"}, {"measurement": "intranuclear pattern of Dox in live cells", "setting": "MDA-MB-435 cells; confocal, live cells", "value": "preferentially accumulates in nucleolar structures"}, {"measurement": "toxicity relative to the equivalent concentration of Dox", "setting": "U251 human glioma cells; 0.5 μM or 1 μM", "value": "8-10 times"}, {"measurement": "factor less HerDox eliciting the same toxicity as Dox", "setting": "U251 human glioma cells", "value": 10, "unit": "×"}, {"measurement": "cell death on parental BT474 (comparative)", "setting": "BT474 parental cells; 48-72 h after treatment", "value": "higher cell death compared to Tz and Tz+Pz; also recorded: modestly improved over trastuzumab; also recorded: modestly improved over Tz"}, {"measurement": "enhancement of HerDox toxicity by trastuzumab pre-treatment", "setting": "BT474 parental cells; parental BT474, 4 h pre-treatment", "value": 50, "unit": "%"}, {"measurement": "enhancement of HerDox toxicity by trastuzumab pre-treatment", "setting": "BT474 parental cells; parental BT474, 24 h pre-treatment", "value": "~75", "unit": "%"}, {"measurement": "response of parental SKBR3 cells", "setting": "SKBR3 parental cells; 48-72 h after treatment", "value": "improved cell killing compared to trastuzumab; also recorded: improved cell killing compared to Tz"}, {"measurement": "cell death", "setting": "SKBR3 parental cells; parental SKBR3, 48-72 h after treatment", "value": 50, "unit": "%"}, {"measurement": "further augmentation of HerDox toxicity by trastuzumab pre-treatment", "setting": "SKBR3 parental cells; parental SKBR3, Tz 4 or 24 hours before HerDox, highest doses tested", "value": "40-50%"}]}
